14 molecules from patent US20260234660A1 (Regeneron, published 2026) can be followed below.

In test [1] the target is T1, human CACNG1, cell surface-expressed (human, UniProt Q06432 1-222). The experiment in a line: cell-based or functional assay.
In test [2] the target is T1, human CACNG1, cell surface-expressed. The experiment in a line: cell-based or functional assay. The source holds these as a separate data set.
For test [3] the target is unchanged. Nature of the test: cell-based or functional assay. The source holds these as a separate data set.
Test [4] addresses T2, nanodisc embedded human CACNG1 expressed with a C-terminal PADRE-Flag-His tag (human, UniProt Q06432 1-222).
T2 construct: Membrane protein (gamma-1 subunit of the skeletal muscle L-type calcium channel) in a nanodisc; also called human CACNG1 nanodisc; CACNG1 nanodisc; not shown: C-terminal PADRE-Flag-His tag
Nature of the test: SPR (Biacore T200), 25 C, anti-His-captured human CACNG1 nanodisc, antibody as analyte. The protocol:
Equilibrium dissociation constants (KD values) for nanodisc embedded human CACNG1 expressed with a C-terminal PADRE-Flag-His tag (human CACNG1 nanodisc) binding to purified anti-hCACNG1 antibodies were determined using a real-time surface plasmon resonance biosensor technology with a Biacore T200 instrument. The CM5 Biacore sensor surface was derivatized by amine coupling with a monoclonal mouse anti-His antibody (Cytiva; Marlborough, MA). All Biacore binding studies were performed in a buffer composed of 0.01M HEPES, 0.15M NaCl, 1 mM CaCl₂), 0.5 mM MgCl₂, pH 7.4 (HBS-N++ running buffer). Different concentrations of anti-hCACNG1 antibodies (ranging from 300 nM to 12 nM in 5-fold serial dilutions) prepared in HBS-N++ running buffer were injected over the captured human CACNG1 nanodisc at a flow rate of 30 μL/minute. Antibody association was monitored for 2 minutes while dissociation was monitored in HBS-N++ running buffer for 5 minutes. At the end of each cycle, the human CACNG1 nanodisc capture surface was regenerated using three 10 second injections of 10 mM Gly pH1.5. All binding kinetics experiments were performed at 25° C.
On the technique in general: In SPR one partner is held on a chip, and binding of the other changes the refractive index at the surface.

In test [5] the target is T1, human CACNG1, cell surface-expressed. The experiment in a line: cell-based or functional assay. The source holds these as a separate data set.
For test [6] the target is unchanged. The experiment in a line: cell-based or functional assay. This is another data set of the same source.
The target is the same in test [7]. The experiment in a line: cell-based or functional assay. This is another data set of the same source.

Read-outs that look alike come from different tables or passages of the source.

T2 sequence (Q06432 whole entry): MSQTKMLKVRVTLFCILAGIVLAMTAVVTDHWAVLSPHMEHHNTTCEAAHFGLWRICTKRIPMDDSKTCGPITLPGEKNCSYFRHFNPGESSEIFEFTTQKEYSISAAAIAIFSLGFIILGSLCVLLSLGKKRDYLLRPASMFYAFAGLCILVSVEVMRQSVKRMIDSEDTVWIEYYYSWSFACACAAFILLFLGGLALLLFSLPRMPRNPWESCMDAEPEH
T1 sequence (Q06432 whole entry): as above

B1: REGN14647-M3004 (antibody, V domains shown)
VH: QVQLVESGGGVVQPGRSLRLSCTASGITFRNYGMHWVRQAPGKGLEWVAVMWYDGSNKYYADSVKGRFTISGDNSKVYLQMNSLRAEDTAVYYCARRGTIRTAAPFDYWGQGTLVTVSS
VL: not shown
modifications: N180Q in the constant region; linker-payload M3004 (VC-PAB linker, DHT), DAR ~4
For B1, the “EC50; androgen receptor luciferase reporter (RLU), hCACNG1.AR.Luc LNCaP cells, 72 hours” value (shortened to “EC50 … 72 hours”) in test [1] turned out to be 7.36 nM. Also, in test [2], the “EC50; androgen receptor luciferase reporter (RLU), hCACNG1.AR.Luc LNCaP cells, 48 hours” value (“EC50 … 48 hours” below) was 6.04 nM. Moreover, in test [3], the “EC50; androgen receptor luciferase reporter (RLU), hCACNG1.AR.Luc LNCaP cells, 24 hours” value (from here on “EC50 … 24 hours”) is 6.75 nM.

B2: H2aM31929N/REGN10728 (antibody, human IgG4 S228P, kappa, V domains shown)
VH: B1 VH
VL: not shown
notes: also called antibody designation 1
With B2, the “mAb Bound at 300 nM (RU)” value in test [4] worked out at 25 RU.

B3: REGN10716 (antibody, human IgG4 S228P, kappa, V domains shown)
VH: QVQLQESGPGLVKPSETLSLTCTVSGDSINNYYWTWLRQPPGKGLEWIGYIYYSGSANYNPSLKSRVTISVDTSKNQFSLKLNSVTAADTAVYYCARGAVKYFRHWGQGTLVTVSS
VL: EIVLTQSPGTLSLSPGERATLSCRASQTINHNNLAWYQQRPGQAPRLLIYGASNRATAIPDRFSGSGSGTDFTLTISRLEPEDFEVYSCQQYGSLPLTFGGGTKVEIKR
notes: also called antibody designation 4
On to B3, for which the “mAb Bound at 300 nM (RU)” value in test [4] came to 31 RU.

B4: REGN10783 (antibody, human IgG4 S228P, kappa, V domains shown)
VH: QVQLVESGGGVVQPGTSLRLSCAASGFTFSSYGMHWVRQAPGKGLEWVAVIWIDGSNKYYADSVKGRFTISRDNSKNTLYLQMNSLRAEDTAVYYCARRGGIVVAAPFDYWGQGTLVTVSS
VL: not shown
notes: also called antibody designation 5
For B4, in test [4], the “mAb Bound at 300 nM (RU)” value came out at 9 RU.

B5: REGN14573-M3004 (antibody, V domains shown)
VH: EVQLVESGGNLVQPGGSLRLSCAASGFTFTSHAMNWVRQAPGKGLEWVSVITGRGFDTHYADSVKGRFTISRDISKNTLYLQMNSLRAEDTAVYYCAKGLYDSGNYYIDYWGQGTLVTVSS
VL: QSVLTQPPSVSAAPGQKVTISCSGSSSNIGNNYVSWYQQLPGTAPKLLIYDNNKRPSGIPDRFSGSKSGTSATLGITGLQTGDEADYYCGTWDLSLSFNWVFGGGTKLTVLG
modifications: N180Q in the constant region; linker-payload M3004 (VC-PAB linker, DHT), DAR ~4
Consider B5, for which the “EC50 … 72 hours” value in test [1] is 185 nM. In test [2], the “EC50 … 48 hours” value is 213 nM. Further, the “EC50 … 24 hours” value in test [3] came out at 214 nM.

B6: REGN10713 (antibody, human IgG4 S228P, lambda, V domains shown)
VH: B5 VH
VL: B5 VL
notes: also called antibody designation 11
Turning to B6, the “mAb Bound at 300 nM (RU)” value in test [4] worked out at 53 RU.

B7: H2aM31944N (antibody, mouse IgG2a, kappa, V domains shown)
VH: QVQLVESGGGVVQPGRSLRLSCEASGITFRNYGMHWVRQAPGKGLEWVAVMWYDGSNKYYADSVKGRFTISRDNSKNTVYLQMNSLRAEDTAVYYCARRGHIATAAPFDYWGQGTLVTVSS
VL: DIQMTQSPSSLSASVGDRVTISCRASQSISSYLNWYQQKPGKAPKVLMYAASSLQSGVPSRFSGSGSGTDFTLTISSLQPEDFATYYCQQSYSTPPITFGQGTRLEIKR
notes: also called antibody designation 6
On to B7, for which, in test [4], the “mAb Bound at 300 nM (RU)” value was determined as 16 RU.

B8: REGN9909 (antibody, mouse IgG2a, kappa, V domains shown)
VH: EVQLLESGGGLVQPGGSLRLSCAASGFTFNNYGMSWVRQGPGKGLEWVSSISGSGGTTFYADSVKGRFTISRDNSKNTLYLQMNSLRAEDTAVYYCGKGGYCSSSGCRHYGMDVWGQGTTVTVSS
VL: QSVLTQPPSASGTPGQRVTISCSGSSSNIGNNYIYWYQRLPGTTPKLLIYRNNQRPSGVPDRFSGSKSGTSASLAISGLRSEDEADYYCAAWDDTLSGYVFGTGTKVTVLR
notes: also called antibody designation 10
As for B8, the “mAb Bound at 300 nM (RU)” value in test [4] was found to be 22 RU.

B9: REGN14572-M3004 (antibody, V domains shown)
VH: QVQLVESGGGVVQPGRSLRLSCAASGFTFSTYGMHWVRQAPGKGLEWVAVIWHDGSDKYYVDSVKGRFSIARDNSKNTLYLQMNSLRVEDTGIYYCARRGIRGTVFDHWGLGTLVTVSS
VL: DIQMTQSPSTLSASVGDRVTLTCRASQSISNKLAWYQQKPGKAPNLLIYKASNLESGVPSRFSGSGSGTEFTLTISSLQPDDFATYYCQQYNSYSWTFGQGTKVEIKR
For the molecule B9, the “EC50 … 48 hours” value in test [5] worked out at 11.9 nM. In addition, in test [6], the “EC50 … 24 hours” value turned out to be 11.2 nM. Further, in test [7], the “EC50 … 72 hours” value is 10.3 nM.

B10: REGN10717 (antibody, human IgG4 S228P, kappa, V domains shown)
VH: B9 VH
VL: B9 VL
notes: also called antibody designation 3
Regarding B10, the “mAb Bound at 300 nM (RU)” value in test [4] came to 7 RU.

B11: H2aM31941N (antibody, V domains shown)
VH: QVQLVQSGAEVKKPGASVKVSCKASGYAFTTYGITWVRQAPGQGLEWMGWISAYNGNTNYAEKVQGRFTMTTDTSTNTAYMELRSLRSDDTAVYFCARKGHYGSGTYYNPFGFDFWGQGTMVTVSS
VL: EIMLMQSPGTLSLSPGERATLSCRASQSVSSSYLAWYQQKPGQAPRLLIYGASSRATDIPDRFSGSGSGTDFTLTISRLEPEDFAVYFCQQYYGSPWTFGQGTKVEIK
notes: also called antibody designation 8
In the case of B11, the “mAb Bound at 300 nM (RU)” value in test [4] is 19 RU.

B12: REGN7660 (antibody, human IgG4 S228P, kappa, V domains shown)
VH: EVQLVESGGGLVQPGGSLKLSCTASGLTLSDSAMHWVRQASGKGLEWVGRIRNKANRYATEYAASVKGRFTISRDDSKNTAYLQMNSLKTEDTAVYYCTRNWKIFLFDYWGQGTLVTVSS
VL: EIVLTQSPGTLTLSPGERATLSCRASQSVGSKYLAWFQQKRGQAPRLLIYGASSRTSGIPDRISGSGSGTDFTLTISRLEPEDFAVYYCQQYGSSPWTFGQGTKVEIKR
notes: also called antibody designation 9
As for B12, the “mAb Bound at 300 nM (RU)” value in test [4] was determined as 23 RU.

B13: REGN14570-M3004 (antibody, V domains shown)
VH: QVQLQQWGAGLLKPSATLSRTCAVYGGSFSGYYWNWIRQSPGKGLEWIGEILHSGRTNYNPSLKSRVTISVDTSKNQFSLKLTSVTAADTAVYYCAGRIAARHGWFDPWGQGTLVTVSS
VL: DIQMTQSPSSVSTSVGDRVTISCRASQDIRKWLAWYQQKPGKAPKLLIYATSSLQSGVPSRFSGSGSGTDFTLTISSLQPEDFATYFCQQANSFPFTFGQGTKLEIKR
With B13, the “EC50 … 48 hours” value in test [5] is 5.83 nM. Moreover, in test [6], the “EC50 … 24 hours” value was determined as 2 nM. For the same molecule, in test [7], the “EC50 … 72 hours” value came to 6.65 nM.

B14: REGN10715 (antibody, human IgG4 S228P, kappa, V domains shown)
VH: B13 VH
VL: B13 VL
notes: also called antibody designation 2
As to B14, the “mAb Bound at 300 nM (RU)” value in test [4] turned out to be 31 RU.
